Measurements reported in publication PMC9127587, “Antibody recognition of complement factor H reveals a flexible loop involved in atypical hemolytic uremic syndrome pathogenesis” (The Journal of Biological Chemistry, 2022).

Assays:
[1] = target: CFH18-20 (human complement factor H CCP18-20) with myc tag and His-tag (human) (UniProt P08603); test: SPR; CFH18-20 (or W1183A) immobilised on a CM5 chip by amine coupling at around 300 RU; VHH4 or its mutants injected as analyte at 30 uL/min; single-cycle kinetics; PBS pH 7.4, Tween 20 (0.005%), 25 °C; Biacore 8K
[2] = target: CFH18-20 W1183A_(CCP20) (human) (UniProt P08603); test: as above
[3] = target: CFH18-20 (human complement factor H CCP18-20) with myc tag and His-tag (human) (UniProt P08603); test: ITC; CFH18-20 in the cell (5-15 uM), VHH4 or mutants in the syringe (50-150 uM), 20 injections; PBS pH 7.4, 25 °C; iTC200
[4] = target: T1, CFH18-20 (human complement factor H CCP18-20) with His-tag only (Homo sapiens, UniProt P08603); test: crystal structure; complex of CFH18-20 with His-tag and VHH4 mixed at 1:1.2 and purified by SEC; crystals at 20 °C in 200 mM sodium phosphate monobasic, 20% PEG 3350; 2.6 Å; settings: both partners purified
T1 construct: complement factor H (CFH), human, domains CCP18-20; Construct for crystallization; Domain CCP18 was not observed in the crystal structure; also called CFH18-20 with His-tag; source: Expi293 cells, transfected, purified from the supernatant (Ni-NTA, SEC); not shown: His-tag, C-terminal, kept

[5] = target: T2, CFH18-20 (human complement factor H CCP18-20) with myc tag and His-tag (Homo sapiens, UniProt P08603); test: SPR; CFH18-20 (or W1183A) immobilised on a CM5 chip by amine coupling at around 300 RU; VHH4 or its mutants injected as analyte at 30 uL/min; single-cycle kinetics; PBS pH 7.4, Tween 20 (0.005%), 25 °C; Biacore 8K; settings: both partners purified
T2 construct: complement factor H (CFH), human, domains CCP18-20; Construct for SPR and ITC; PDB 7WKI holds the His-only form of the same protein; also called CFH18-20 WT; CFH CCP18-20; source: Expi293 cells, transfected, purified from the supernatant (Ni-NTA, SEC); not shown: myc, C-terminal, kept; His-tag, C-terminal, kept

[6] = target: T2, CFH18-20 (human complement factor H …); test: ITC; CFH18-20 in the cell (5-15 uM), VHH4 or mutants in the syringe (50-150 uM), 20 injections; PBS pH 7.4, 25 °C; iTC200; settings: both partners purified

Sequence of CFH18-20 (human complement factor H CCP18-20) with myc tag and His-tag (human) (P08603 1046-1231): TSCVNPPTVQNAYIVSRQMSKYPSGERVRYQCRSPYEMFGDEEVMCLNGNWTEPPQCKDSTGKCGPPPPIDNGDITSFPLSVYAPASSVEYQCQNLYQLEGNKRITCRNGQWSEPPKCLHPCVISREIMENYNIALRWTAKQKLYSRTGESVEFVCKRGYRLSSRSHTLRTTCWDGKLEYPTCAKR
T2 sequence (P08603 1046-1231): as above
Sequence of CFH18-20 W1183A_(CCP20) (human) (P08603 1046-1231 W1183A): as the sequence (P08603 1046-1231) above, with W138A counted along it
T1 sequence (P08603 1046-1231): as the sequence (P08603 1046-1231) above

B1: VHH4 (VHH)
VHH: QVQLVESGGGLVQAGGSLRLSCAASGLTVDDYAIGWFRQAPGKEREGVSCISSSNGSTYYADSVKGRFTISSDNAKNTAYLQMNSLKPEDTAVYYCAAAVSPNLECGTGPFGIYASYYGMDYWGQGTQVTVSS
notes: alpaca VHH selected by phage display; CDR3 is Ala99-Tyr122; Disulfide bond between Cys50 and Cys106; also called VHH4 WT; WT; source: E. coli BL21 (DE3), purified (Ni-NTA, SEC)
Kd [1]: 0.00171 nM | koff [1]: 5.53e-08 s⁻¹ | kon [1]: 31400 M⁻¹ s⁻¹ | Kd [2]: > 1000 nM | Kd [3]: 2.01 nM | dH [3]: -121 kJ/mol | stoichiometry N [3]: 0.895 | binding result [4]: binds

B2: VHH4 T108A (VHH)
VHH: QVQLVESGGGLVQAGGSLRLSCAASGLTVDDYAIGWFRQAPGKEREGVSCISSSNGSTYYADSVKGRFTISSDNAKNTAYLQMNSLKPEDTAVYYCAAAVSPNLECGAGPFGIYASYYGMDYWGQGTQVTVSS
Kd [1]: 0.146 nM | koff [1]: 2.57e-06 s⁻¹ | kon [1]: 17900 M⁻¹ s⁻¹ | Kd [3]: 8.79 nM | dH [3]: -114 kJ/mol | stoichiometry N [3]: 0.924

B3: VHH4 P110A (VHH)
VHH: QVQLVESGGGLVQAGGSLRLSCAASGLTVDDYAIGWFRQAPGKEREGVSCISSSNGSTYYADSVKGRFTISSDNAKNTAYLQMNSLKPEDTAVYYCAAAVSPNLECGTGAFGIYASYYGMDYWGQGTQVTVSS
Kd [1]: 0.504 nM | koff [1]: 7.11e-06 s⁻¹ | kon [1]: 9210 M⁻¹ s⁻¹ | Kd [3]: 5.03 nM | dH [3]: -125 kJ/mol | stoichiometry N [3]: 0.838

B4: VHH4 Y117A (VHH)
VHH: QVQLVESGGGLVQAGGSLRLSCAASGLTVDDYAIGWFRQAPGKEREGVSCISSSNGSTYYADSVKGRFTISSDNAKNTAYLQMNSLKPEDTAVYYCAAAVSPNLECGTGPFGIYASAYGMDYWGQGTQVTVSS
Kd [1]: 0.498 nM | koff [1]: 5.39e-07 s⁻¹ | kon [1]: 11300 M⁻¹ s⁻¹ | Kd [3]: 5.87 nM | dH [3]: -117 kJ/mol | stoichiometry N [3]: 0.933

B5: VHH4 G119A (VHH)
VHH: QVQLVESGGGLVQAGGSLRLSCAASGLTVDDYAIGWFRQAPGKEREGVSCISSSNGSTYYADSVKGRFTISSDNAKNTAYLQMNSLKPEDTAVYYCAAAVSPNLECGTGPFGIYASYYAMDYWGQGTQVTVSS
Kd [1]: 9.18 nM | koff [1]: 0.000611 s⁻¹ | kon [1]: 62800 M⁻¹ s⁻¹ | Kd [3]: 7.26 nM | dH [3]: -81.2 kJ/mol | stoichiometry N [3]: 0.865

B6: VHH4 W123A (VHH)
VHH: QVQLVESGGGLVQAGGSLRLSCAASGLTVDDYAIGWFRQAPGKEREGVSCISSSNGSTYYADSVKGRFTISSDNAKNTAYLQMNSLKPEDTAVYYCAAAVSPNLECGTGPFGIYASYYGMDYAGQGTQVTVSS
Kd [1]: 5.05 nM | koff [1]: 0.000159 s⁻¹ | kon [1]: 31200 M⁻¹ s⁻¹ | Kd [3]: 3.92 nM | dH [3]: -87.7 kJ/mol | stoichiometry N [3]: 0.866

B7: VHH4 Y95A (VHH)
VHH: QVQLVESGGGLVQAGGSLRLSCAASGLTVDDYAIGWFRQAPGKEREGVSCISSSNGSTYYADSVKGRFTISSDNAKNTAYLQMNSLKPEDTAVYACAAAVSPNLECGTGPFGIYASYYGMDYWGQGTQVTVSS
Kd [1]: 0.166 nM | koff [1]: 4.42e-06 s⁻¹ | kon [1]: 30400 M⁻¹ s⁻¹ | Kd [3]: 2.27 nM | dH [3]: -118 kJ/mol | stoichiometry N [3]: 0.842

B8: VHH4 P102A (VHH)
VHH: QVQLVESGGGLVQAGGSLRLSCAASGLTVDDYAIGWFRQAPGKEREGVSCISSSNGSTYYADSVKGRFTISSDNAKNTAYLQMNSLKPEDTAVYYCAAAVSANLECGTGPFGIYASYYGMDYWGQGTQVTVSS
Kd [1]: 0.219 nM | koff [1]: 4.07e-06 s⁻¹ | kon [1]: 23700 M⁻¹ s⁻¹ | Kd [3]: 4.11 nM | dH [3]: -124 kJ/mol | stoichiometry N [3]: 0.961

B9: VHH4 L104A (VHH)
VHH: QVQLVESGGGLVQAGGSLRLSCAASGLTVDDYAIGWFRQAPGKEREGVSCISSSNGSTYYADSVKGRFTISSDNAKNTAYLQMNSLKPEDTAVYYCAAAVSPNAECGTGPFGIYASYYGMDYWGQGTQVTVSS
notes: as the VHH chain of m4 (PDB 7WKI) with the stated change; also called L104A_(VHH4); Leu104A_(VHH4); source: E. coli BL21 (DE3), purified (Ni-NTA, SEC), as the wildtype
Kd [5]: 44.1 ± 2.3 nM | koff [5]: 0.000489 s⁻¹ | kon [5]: 11200 M⁻¹ s⁻¹ | Kd [6]: 166 ± 40.3 nM | dH [6]: -102 ± 4.14 kJ/mol | stoichiometry N [6]: 0.947 ± 0.061

B10: VHH4 Y118A (VHH)
VHH: QVQLVESGGGLVQAGGSLRLSCAASGLTVDDYAIGWFRQAPGKEREGVSCISSSNGSTYYADSVKGRFTISSDNAKNTAYLQMNSLKPEDTAVYYCAAAVSPNLECGTGPFGIYASYAGMDYWGQGTQVTVSS
notes: as the VHH chain of m4 (PDB 7WKI) with the stated change; also called Y118A_(VHH4); Tyr118A_(VHH4); source: E. coli BL21 (DE3), purified (Ni-NTA, SEC), as the wildtype
Kd [5]: 2200 ± 732 nM | koff [5]: 0.0298 s⁻¹ | kon [5]: 15800 M⁻¹ s⁻¹ | Kd [6]: 410 ± 26.4 nM | dH [6]: -81.3 ± 1.38 kJ/mol | stoichiometry N [6]: 0.947 ± 0.041

B11: VHH4 D121A (VHH)
VHH: QVQLVESGGGLVQAGGSLRLSCAASGLTVDDYAIGWFRQAPGKEREGVSCISSSNGSTYYADSVKGRFTISSDNAKNTAYLQMNSLKPEDTAVYYCAAAVSPNLECGTGPFGIYASYYGMAYWGQGTQVTVSS
notes: as the VHH chain of m4 (PDB 7WKI) with the stated change; also called D121A_(VHH4); Asp121A_(VHH4); source: E. coli BL21 (DE3), purified (Ni-NTA, SEC), as the wildtype
Kd [5]: 127 ± 30 nM | koff [5]: 0.000545 s⁻¹ | kon [5]: 4340 M⁻¹ s⁻¹ | Kd [6]: 361 ± 64.9 nM | dH [6]: -123 ± 4.77 kJ/mol | stoichiometry N [6]: 1 ± 0.019
